Reference: US20210292414A1 (H LUNDBECK A S, published 2021)
Residue numbers refer to the chain shown, from its start. Blank lines part the entries; values can stand above or below the binder they belong to.

Key:
Experiment in all cases: BLI (Octet384RED)
[1] = target: T1, Sortilin SORTECDBAP_hB01-05 (human/tetraodon chimera)
T1 construct: Shuffle construct: chimeric human/tetraodon Sortilin ECD with BAP tag
T1 chain: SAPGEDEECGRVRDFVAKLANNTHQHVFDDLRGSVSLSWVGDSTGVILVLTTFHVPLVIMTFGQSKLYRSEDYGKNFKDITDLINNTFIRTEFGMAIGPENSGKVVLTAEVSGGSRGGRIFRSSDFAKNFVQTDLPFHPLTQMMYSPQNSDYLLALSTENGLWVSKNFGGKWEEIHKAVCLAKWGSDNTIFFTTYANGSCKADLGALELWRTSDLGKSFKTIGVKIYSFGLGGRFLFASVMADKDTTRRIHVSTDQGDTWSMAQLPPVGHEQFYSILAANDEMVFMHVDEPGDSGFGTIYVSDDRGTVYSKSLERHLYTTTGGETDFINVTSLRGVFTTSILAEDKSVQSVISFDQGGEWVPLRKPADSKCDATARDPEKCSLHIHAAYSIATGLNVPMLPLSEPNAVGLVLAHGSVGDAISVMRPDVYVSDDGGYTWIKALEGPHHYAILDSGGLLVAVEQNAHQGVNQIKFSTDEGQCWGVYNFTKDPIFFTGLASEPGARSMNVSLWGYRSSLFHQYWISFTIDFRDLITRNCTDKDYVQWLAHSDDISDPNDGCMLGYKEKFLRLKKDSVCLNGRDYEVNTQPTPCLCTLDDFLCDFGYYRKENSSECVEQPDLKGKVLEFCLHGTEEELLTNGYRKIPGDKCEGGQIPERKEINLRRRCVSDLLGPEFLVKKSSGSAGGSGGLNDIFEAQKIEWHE

Sortilin hSORTECDBAP = target: T2, Sortilin hSORTECDBAP (human, UniProt Q99523 78-755)
T2 sequence: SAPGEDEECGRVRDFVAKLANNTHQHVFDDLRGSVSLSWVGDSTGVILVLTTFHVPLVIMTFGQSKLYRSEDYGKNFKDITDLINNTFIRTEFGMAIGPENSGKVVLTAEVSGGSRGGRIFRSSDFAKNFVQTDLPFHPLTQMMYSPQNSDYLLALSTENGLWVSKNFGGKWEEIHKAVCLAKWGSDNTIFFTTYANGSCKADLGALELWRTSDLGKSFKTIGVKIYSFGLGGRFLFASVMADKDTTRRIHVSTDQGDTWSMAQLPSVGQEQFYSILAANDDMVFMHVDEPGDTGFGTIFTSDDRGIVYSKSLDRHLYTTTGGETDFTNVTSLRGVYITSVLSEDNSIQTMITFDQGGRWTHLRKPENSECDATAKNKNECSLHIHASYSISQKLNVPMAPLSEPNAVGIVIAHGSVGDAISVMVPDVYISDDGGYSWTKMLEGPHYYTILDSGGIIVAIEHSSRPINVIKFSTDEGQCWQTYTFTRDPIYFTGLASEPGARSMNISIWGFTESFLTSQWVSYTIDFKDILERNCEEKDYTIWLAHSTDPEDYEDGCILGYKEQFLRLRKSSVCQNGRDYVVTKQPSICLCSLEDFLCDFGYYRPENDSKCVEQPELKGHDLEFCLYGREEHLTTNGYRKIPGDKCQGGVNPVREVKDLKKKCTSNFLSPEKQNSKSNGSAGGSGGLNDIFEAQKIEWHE

[2] = target: T3, Sortilin SORTECDBAP_hB06-10 (human/tetraodon chimera)
T3 construct: Shuffle construct: chimeric human/tetraodon Sortilin ECD with BAP tag
T3 chain: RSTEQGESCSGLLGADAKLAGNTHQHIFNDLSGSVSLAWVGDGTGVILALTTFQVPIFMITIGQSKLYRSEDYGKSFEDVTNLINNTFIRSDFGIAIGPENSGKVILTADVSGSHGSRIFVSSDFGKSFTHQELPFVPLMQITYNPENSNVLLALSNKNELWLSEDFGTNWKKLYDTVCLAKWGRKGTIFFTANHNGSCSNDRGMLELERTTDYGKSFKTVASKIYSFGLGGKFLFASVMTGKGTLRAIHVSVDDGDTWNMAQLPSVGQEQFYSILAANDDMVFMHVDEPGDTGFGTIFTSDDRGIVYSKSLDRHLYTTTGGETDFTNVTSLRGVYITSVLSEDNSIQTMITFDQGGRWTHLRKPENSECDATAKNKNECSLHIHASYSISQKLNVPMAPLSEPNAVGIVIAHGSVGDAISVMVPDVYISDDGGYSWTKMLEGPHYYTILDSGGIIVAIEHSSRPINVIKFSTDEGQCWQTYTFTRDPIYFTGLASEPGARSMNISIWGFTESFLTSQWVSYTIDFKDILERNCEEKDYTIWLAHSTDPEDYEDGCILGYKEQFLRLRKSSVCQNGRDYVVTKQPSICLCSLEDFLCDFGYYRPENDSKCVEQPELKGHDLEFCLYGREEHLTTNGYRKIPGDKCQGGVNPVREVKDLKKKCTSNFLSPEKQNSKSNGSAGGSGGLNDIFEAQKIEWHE

[3] = target: T4, Sortilin SORTECDBAP_hB45678 (human/tetraodon chimera)
T4 construct: Shuffle construct: chimeric human/tetraodon Sortilin ECD with BAP tag
T4 chain: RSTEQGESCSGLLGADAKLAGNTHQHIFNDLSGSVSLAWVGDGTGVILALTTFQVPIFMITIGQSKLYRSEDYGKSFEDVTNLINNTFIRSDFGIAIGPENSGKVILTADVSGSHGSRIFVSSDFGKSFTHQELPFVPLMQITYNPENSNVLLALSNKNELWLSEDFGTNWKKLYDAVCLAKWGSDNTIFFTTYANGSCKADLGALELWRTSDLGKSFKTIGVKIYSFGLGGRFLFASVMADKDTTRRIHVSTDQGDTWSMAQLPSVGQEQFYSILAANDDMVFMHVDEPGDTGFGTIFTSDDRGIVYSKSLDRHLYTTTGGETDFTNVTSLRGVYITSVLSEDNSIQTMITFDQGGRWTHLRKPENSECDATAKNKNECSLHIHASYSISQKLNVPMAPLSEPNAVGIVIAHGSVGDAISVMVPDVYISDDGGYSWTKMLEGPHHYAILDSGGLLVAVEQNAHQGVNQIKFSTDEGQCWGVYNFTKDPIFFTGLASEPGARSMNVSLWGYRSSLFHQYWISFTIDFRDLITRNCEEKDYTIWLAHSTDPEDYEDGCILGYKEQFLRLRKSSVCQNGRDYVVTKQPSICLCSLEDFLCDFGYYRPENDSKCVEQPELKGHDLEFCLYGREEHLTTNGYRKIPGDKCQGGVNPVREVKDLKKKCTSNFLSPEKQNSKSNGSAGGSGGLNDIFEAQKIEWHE

B1: Antibody 6003-030 (antibody, human IgG1, V domains shown)
VH: EVQVLESGGGLVQPGGSLRLSCAASGFTFSSYAMSWVRQAPGKGLEWVSTISGRGGNTYYADSVKGRFTISRDNSKNTLYLQMDSLRAEDTAVYYCAIIPSLYWYFDLWGRGTLVTVSS
VL: EIVLTQSPATLSLSPGERATLSCRASQSVSSYLAWYQQKPGQAPRLLIYDASNRATGIPARFSGSGSGTDFTLTISSLEPEDFAVYYCQQRSNWPLTFGGGTKVEIK
notes: Human antibody (HuMab); also called antibody 30; mAb30
- binding result [1]: no binding
- EC50 (Sortilin hSORTECDBAP): 0.89 ng/mL
- EC50 [2]: 0.74 ng/mL
- EC50 [3]: 0.85 ng/mL

B4: Antibody 6003-056 (antibody, human IgG1, V domains shown)
VH: B1 VH with A23V, S35H, T50A, N57S, D84N
VL: B1 VL with Y32F
- binding result [1]: no binding
- EC50 (Sortilin hSORTECDBAP): 1.26 ng/mL
- EC50 [2]: 0.97 ng/mL
- EC50 [3]: 1.1 ng/mL

B6: IgG1-6003-408 (antibody, V domains shown)
VH: EVQLVESGGGLVKPGGSLRLSCAASGFTFSSYSMNWVRQAPGKGLEWVSSISSSSSYIYYADSVKGRFTISRDNAKNSLYLQMNSLRAEDTAVYYCARRRIAAAGTGYGAFDIWGQGTMVTVSS
VL: ARQLTQSPSSLSASVGDRVTITCRASQGITSALAWYQQKPGKVPKLLIYDASSLESGVPSRFSGSGSGTDFTLTISSLQPEDFATYYCQQFNGYPMFSFGQGTKLEII
notes: also called Antibody 6003-408
- binding result [1]: no binding
- EC50 (Sortilin hSORTECDBAP): 1.93 ng/mL
- EC50 [2]: 1.68 ng/mL
- EC50 [3]: 2.58 ng/mL

B7: Antibody 6003-381 (antibody, human IgG1, V domains shown)
VH: QVQLVESGGGVVQPGRSLRLSCAASGFTFSNYVMHWVRQAPGKGLEWVAAISYNGNNKYYADSVKGRFTISRDNSKNTLYLQMNSLRAEDTAVSYCAKGLNDAFDIWGQGTMVTVSS
VL: not shown
- binding result [1]: no binding
- EC50 (Sortilin hSORTECDBAP): 1.82 ng/mL
- EC50 [2]: 1.34 ng/mL
- EC50 [3]: 2 ng/mL

More lines, now with the values ahead:

- binding result [1]: no binding
- EC50 (Sortilin hSORTECDBAP): 1.75 ng/mL
- EC50 [2]: 1.56 ng/mL
- EC50 [3]: 1.96 ng/mL
B2: Antibody 6003-028 (antibody, human IgG1, V domains shown)
VH: B1 VH with V4L, N57S, D84N, I98N, I99L, P100Y, L102N
VL: B1 VL with Y32F

- binding result [1]: no binding
- EC50 (Sortilin hSORTECDBAP): 0.77 ng/mL
- EC50 [2]: 0.76 ng/mL
- EC50 [3]: 0.92 ng/mL
B3: Antibody 6003-083 (antibody, human IgG1, V domains shown)
VH: B1 VH with V4L, N57S, D84N, I99V, P100A, S101T, L102M
VL: B1 VL with L96I, G100Q, K103R, V104L

- binding result [1]: no binding
- EC50 (Sortilin hSORTECDBAP): 1.02 ng/mL
- EC50 [2]: 0.87 ng/mL
- EC50 [3]: 1.02 ng/mL
B5: Antibody 6003-1286 (antibody, human IgG1, V domains shown)
VH: B1 VH with V4L, D84N, T91A, I98N, P100Y, L102H
VL: B1 VL with S30N

- binding result [1]: no binding
- EC50 (Sortilin hSORTECDBAP): 3.03 ng/mL
- EC50 [2]: 2.62 ng/mL
- EC50 [3]: 4.3 ng/mL
B8: Antibody 6003-1277 (antibody, V domains shown)
VH: QVQLVQSGAEVKKPGASVKVSCKTSGYTFTHYGISWVRQAPGQGLEWMGWINTYNGNTKYAQKLQGRVTMTTDTSTSTAYMELRSLRSDDTAVYYCASLGRNFDYWGQGTLVTVSS
VL: not shown
